Data from publication PMC8440666, “Allosteric modulation of LRRC8 channels by targeting their cytoplasmic domains” (Nature Communications, 2021).
Values joined by “and” are separate entries in the source; they are usually repeats but may differ in a detail not shown here. Identical values can stand only once.

B1: full-length murine LRRC8A (homomeric hexameric channel), Q80WG5 1-810 (natural protein)
chain: MIPVTELRYFADTQPAYRILKPWWDVFTDYISIVMLMIAVFGGTLQVTQDKMICLPCKWVTKDSCNDSFRGWAASSPEPTYPNSTVLPTPDTGPTGIKYDLDRHQYNYVDAVCYENRLHWFAKYFPYLVLLHTLIFLACSNFWFKFPRTSSKLEHFVSILLKCFDSPWTTRALSETVVEESDPKPAFSKMNGSMDKKSSTVSEDVEATVPMLQRTKSRIEQGIVDRSETGVLDKKEGEQAKALFEKVKKFRTHVEEGDIVYRLYMRQTIIKVIKFALIICYTVYYVHNIKFDVDCTVDIESLTGYRTYRCAHPLATLFKILASFYISLVIFYGLICMYTLWWMLRRSLKKYSFESIREESSYSDIPDVKNDFAFMLHLIDQYDPLYSKRFAVFLSEVSENKLRQLNLNNEWTLDKLRQRLTKNAQDKLELHLFMLSGIPDTVFDLVELEVLKLELIPDVTIPPSIAQLTGLKELWLYHTAAKIEAPALAFLRENLRALHIKFTDIKEIPLWIYSLKTLEELHLTGNLSAENNRYIVIDGLRELKRLKVLRLKSNLSKLPQVVTDVGVHLQKLSINNEGTKLIVLNSLKKMVNLTELELIRCDLERIPHSIFSLHNLQEIDLKDNNLKTIEEIISFQHLHRLTCLKLWYNHIAYIPIQIGNLTNLERLYLNRNKIEKIPTQLFYCRKLRYLDLSHNNLTFLPADIGLLQNLQNLAVTANRIEALPPELFQCRKLRALHLGNNVLQSLPSRVGELTNLTQIELRGNRLECLPVELGECPLLKRSGLVVEEDLFSTLPPEVKERLWRADKEQA
B2: sybody Sb1^LRRC8A (VHH)
VHH: QVQLVESGGGLVQAGGSLRLSCAASGFPVGRHFMYWYRQAPGKEREWVAAIYSYGEYTEYADSVKGRFTISRDNAKNTVYLQMNSLKPEDTAVYYCYVYVGNEYWGQGTQVTVSA
notes: residues 1-116 modelled; concave library; Synthetic nanobody selected by ribosome and phage display against full-length LRRC8A; N-terminal pelB leader for periplasmic expression; For electrophysiology also expressed in HEK293 cells with C-terminal Venus-myc-SBP; source: E. coli MC1061, periplasmic expression, purified (Ni-NTA, SEC on Superdex 75)
B3: sybody Sb4^LRRC8A (VHH)
VHH: QVQLVESGGGSVQAGGSLRLSCAASGYIYQIEYLGWFRQAPGKEREGVAALATWNGQTYYADSVKGRFTVSLDNAKNTVYLQMNSLKPEDTALYYCAAAYEGDTSPLYYEEYGYWGQGTQVTVSA
notes: convex library; Synthetic nanobody selected by ribosome and phage display against full-length LRRC8A; For electrophysiology expressed in HEK293 cells with C-terminal Venus-myc-SBP; source: E. coli MC1061, periplasmic expression, purified (Ni-NTA, SEC on Superdex 75)
B4: sybody Sb5^LRRC8A (VHH)
VHH: QVQLVESGGGLVQAGGSLRLSCAASGFPVAQEIMTWYRQAPGKEREWVAAISSIGDTTAYADSVKGRFTISRDNAKNTVYLQMNSLKPEDTAVYYCAVNVGFTYKGQGTQVTVSA
notes: concave library; Synthetic nanobody selected by ribosome and phage display against full-length LRRC8A; For electrophysiology expressed in HEK293 cells with C-terminal Venus-myc-SBP; source: E. coli MC1061, periplasmic expression, purified (Ni-NTA, SEC on Superdex 75)
B5: sybody Sb2^LRRC8A (VHH)
VHH: QVQLVESGGGLVQAGGSLRLSCAASGFPVYQAWMWWYRQAPGKEREWVAAIESEGQYTWYADSVKGRFTISRDNAKNTVYLQMNSLKPEDTAVYYCNVKDTGHTTNQYDYWGQGTQVTVSA
notes: loop library; Synthetic nanobody selected by ribosome and phage display against full-length LRRC8A; For electrophysiology expressed in HEK293 cells with C-terminal Venus-myc-SBP; source: E. coli MC1061, periplasmic expression, purified (Ni-NTA, SEC on Superdex 75)
B6: sybody Sb3^LRRC8A (VHH)
VHH: QVQLVESGGGLVQAGGSLRLSCAASGFPVMNAGMYWYRQAPGKEREWVAAIESEGTSTYYADSVKGRFTISRDNAKNTVYLQMNSLKPEDTAVYYCNVKDVGDNHFPYDYWGQGTQVTVSA
notes: residues 1-120 modelled; loop library; Synthetic nanobody selected by ribosome and phage display against full-length LRRC8A; For electrophysiology expressed in HEK293 cells with C-terminal Venus-myc-SBP; source: E. coli MC1061, periplasmic expression, purified (Ni-NTA, SEC on Superdex 75)

Assays:
[1] = target: T1, full-length murine LRRC8A (homomeric hexameric channel) (mouse), Q80WG5; assay: cryo-EM structure; sybody added to purified full-length LRRC8A at a molar ratio sybody/LRRC8A monomer of 1.25-1.5 (0.5 for Sb4_(0.5)), no further chromatography; C3 symmetry imposed; conditions: remark: other sources report otherwise
T1 chain: B1 chain

[2] = target: T2, full-length murine LRRC8A (homomeric hexameric channel) (mouse, UniProt Q80WG5); assay: as above; conditions: both partners purified
T2 construct: full-length mouse LRRC8A (NP_808393.1); For patch clamp it was expressed from a vector without mCherry in LRRC8-/- HEK293 cells; also called homomeric LRRC8A channel; not shown: mCherry, C-terminal, cleaved; myc, C-terminal, cleaved; SBP, C-terminal, cleaved

[3] = target: T2, full-length murine LRRC8A (homomeric …); assay: cell-based or functional assay
[4] = target: T3, LRR domain of LRRC8A (soluble cytoplasmic leucine-rich repeat domain of mouse LRRC8A) (Mus musculus, UniProt Q80WG5, chemically biotinylated with amine-reactive NHS-PEG4-Biotin for ELISA and SPR); assay: SPR; Biacore T100; chemically biotinylated LRR domain immobilised on streptavidin chip (~100 RU), sybody as analyte; 20 °C, 10 mM HEPES pH 7.4, 150 mM NaCl, 0.5 mM EDTA, 0.05% Tween 20; multi-cycle kinetics (Sb1, Sb3, Sb4, Sb5) or single-cycle kinetics (Sb2); 1:1 binding model; conditions: both partners purified
T3 construct: LRR domain of mouse LRRC8A, residues 398-810 of NP_808393.1; Used without biotin in SEC and biotinylated in SPR and ELISA; also called LRRC8A-cytosolic domain (LRR); LRRC8A-LRR domain; not shown: SBP, N-terminal, cleaved; myc, N-terminal, cleaved

Binder	stoichiometry N [1] [subunits]	stoichiometry N [2]	current density of endogenous VRAC in HEK293 cells, whole-cell patch clamp, 125 mM intracellular salt, 1 µM Sb1 in the pipette solution [3] [fold reduction]	Kd [4]	koff [4]	endogenous VRAC current density in HEK293 cells expressing Sb4 compared to non-transfected cells, whole-cell patch clamp, 125 mM (about 50% increase) and 175 mM intracellular salt [3] [fold increase]	endogenous VRAC current density in HEK293 cells expressing Sb5 compared to non-transfected cells, whole-cell patch clamp, 125 mM (about 50% increase) and 175 mM intracellular salt [3] [fold increase]
B1	6						
B2		6 sybodies per hexameric channel	~4	24 nM and 22 nM	0.03 s⁻¹ and 0.037 s⁻¹		
B3				27 nM and 17 nM	0.064 s⁻¹	~5	
B4				175 nM and 170 nM	0.199 s⁻¹ and 0.242 s⁻¹		~2.3
B5		6 sybodies per hexameric channel		35 nM and 60 nM	0.003 s⁻¹		
B6		6 sybodies per hexameric channel		800 nM and 913 nM	0.104 s⁻¹ and 0.113 s⁻¹		
